Assay [1] has as its target 53BP1 (amino acids 1484-1603) fused to MBP (Homo sapiens, UniProt Q12888). As to the kind of experiment: Biolayer interferometry (BLI) of purified His-tagged Ubvs, 1:1 binding model global fit. Particulars: for Response: second experiment, longer association (360 seconds; i53 90 seconds). On the procedure:
In order to assess the effect of mutations identified from the two-hybrid screen on the affinity of the Ubvs for 53BP1, Ubvs consisting of the i53 sequence with an N-terminal His tag and short flexible linker plus individual or combinations of screen-identified mutations were purified from E. coli (Table 3). Biolayer interferometry was used to measure the affinity of the purified proteins. Briefly, a purified Ubv was diluted in reaction buffer (1×PBS pH7.4, 0.1 mg/mL BSA, 0.001% Tween 20) to 2 ug/mL. Purified 53BP1 (amino acids 1484-1603) fused to MBP was diluted in reaction buffer to between 20 μM and 10 nM (Table 3, Table 4)). For each Ubv, 8 Ni-NTA sensor tips were hydrated and then loaded with the 2 ug/ml of a Ubv for 30 seconds. Sensor tips were then incubated in reaction buffer for 45 seconds to obtain a baseline. Tips were then moved into either empty buffer or seven different concentrations of purified 53BP1 and the association was measured. Tips were then moved back into reaction buffer and the dissociation was measured. Kon, Koff, and Kd were calculated using a 1:1 binding model using a global fit (Table 4).
A second experiment was performed using CM1 and CM7 using a longer association time (360 seconds) to allow binding to closer approach equilibrium. The BLI response vs 53BP1 fragment concentration was plotted in prism to calculate the Kd using a one site-specific binding nonlinear fit model. An i53 response was plotted on the same graph however the association time used (90 seconds) was shorter due to needing a shorter time to reach equilibrium because of the fast off rate of i53 (FIG. 5B, FIG. 5C, Table 4).

In assay [2] the test system is HDR at a Cas9 cut site in CLTA in K562 cells. As to the kind of experiment: HDR insertion of 729 bp GFP coding sequence at CLTA, measured by ONT sequencing. The format is cell-based. The note with it: dsDNA donor (large insert), Ubv 37.5 μM, IDT-E 1 μM for 24 hours. How it is done:
FIG. 12A illustrates use of a ubiquitin variant with high affinity for 53BP1 provides an additional benefit to HDR over the use of a DNA-PK inhibitor alone. […] Ubiquitin variants were delivered alongside 2 μM Cas9 RNP at 37.5 μM final concentration. IDT-E was added to media post nucleofection for 24 hours at 1 μM final dose. Double stranded DNA donor with 200 bp homology arms was delivered at 1.5 μg per nucleofection.
(§1) We tested if our ubiquitin variants provided a further benefit over inhibition of common NHEJ pathway targets alone by using the DNA-PK inhibitor IDT enhancer (IDT-E) in combination with CM1 in the context of both large and small inserts (Table 7). […] Without limiting the claimed subject matter to a particular mode or mechanism of action, we hypothesize that our ubiquitin variants targeting 53BP1 will be a useful in facilitating increased HIDR when used in combination with other inhibitors of NHEJ pathway components.

Assay [3] relates to HDR at a Cas9 cut site in MET in HEK293 cells. As to the kind of experiment: HDR (6 nt insert) at MET measured by EcoR1 cleavage. The assay is classed as cell-based. Particulars: Alt-R HDR donor oligo (small insert), CM1 […], IDT-E 1 μM for 24 hours.
Text: as §1

For assay [4], the system named is HDR at HPRT1 in HEK293 cells that constitutively express HiFi Cas9 / Jurkat cells. As to the kind of experiment: HDR at HPRT1 by EcoR1 cleavage assay, Ubv delivered as expression plasmid. Particulars: 154 ng plasmid encoding His-tagged Ubv, versus LbCas12a crRNA plasmid negative control. The assay is classed as cell-based. How it is done:
Error bars indicate the standard deviation from two replicates.
In order to test if CM1 is effective at increasing HDR rates when delivered in other forms, plasmid or mRNA encoding CM1 was introduced into cells and the effects on HDR rates were analyzed. […] After 72 hours, genomic DNA was extracted using QuickExtract (Lucigen) and editing was analyzed by PCR amplification of the HPRT1 target site followed by EcoR1 restriction enzyme digestion. Digested product was run on a Fragment Analyzer (AATI).

The subject of assay [5] is HDR at HPRT1 in HEK293 cells. As to the kind of experiment: HDR at HPRT1 by EcoR1 cleavage assay, tag-free versus His-tagged CM1 protein. The format is cell-based. Particulars: HEK293, HPRT1, 50 μM to […] ubiquitin variant. How it is done:
Data is shown for two biological replicates with lines connecting the means. The dashed line indicates the level of EcoR1 cleavage when no enhancer is used (n=3, standard deviation <2%).
A tag-free version of CM1 (CM1tf, SEQ ID NO:482) was compared with the His6-tagged version of CM1 (SEQ ID NO:241) for their ability to enhance HDR in HEK293 cells as has been described in previous examples. Briefly, 2 uM Cas9 RNP targeting a site in HPRT1 and 2 uM ssDNA donor containing 40 bp homology arms flanking a 6 bp EcoR1 cut site insert sequence were delivered into HEK293 cells with varying amounts of CM1tf (CM1tf, SEQ ID NO:482) or His-tagged CM1 (CM1; SEQ ID NO:241) using Lonza nucleofection. Genomic DNA was isolated after 48 hours, and editing was measured using an EcoR1 cleavage assay.

In assay [6] the target is T1, fragment of 53BP1 (a.a. 1221-1718) (Homo sapiens, UniProt Q12888).
T1 construct: a fragment of 53BP1 (a.a. 1221-1718); expressed in transfected cells; host or cells: E. coli DHM1
T1 sequence (Q12888 1221-1718): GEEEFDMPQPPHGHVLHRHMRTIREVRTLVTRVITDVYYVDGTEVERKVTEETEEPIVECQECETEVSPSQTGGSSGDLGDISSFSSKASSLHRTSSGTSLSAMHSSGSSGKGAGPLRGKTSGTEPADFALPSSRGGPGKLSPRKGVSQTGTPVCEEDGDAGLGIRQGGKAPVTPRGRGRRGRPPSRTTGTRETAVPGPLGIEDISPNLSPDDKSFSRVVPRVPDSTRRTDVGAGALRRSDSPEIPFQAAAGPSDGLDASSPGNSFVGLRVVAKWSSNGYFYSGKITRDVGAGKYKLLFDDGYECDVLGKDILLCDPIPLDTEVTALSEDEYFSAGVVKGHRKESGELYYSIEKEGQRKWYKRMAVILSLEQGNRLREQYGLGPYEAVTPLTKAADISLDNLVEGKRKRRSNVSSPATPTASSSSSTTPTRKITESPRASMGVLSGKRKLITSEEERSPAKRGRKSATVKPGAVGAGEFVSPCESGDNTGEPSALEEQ
As to the kind of experiment: BACTH two-hybrid pooled screen in E. coli, FACS sorting of GFP positive cells and NGS enrichment of i53 amino acid changes. The assay is classed as cell-based. From the text:
(§2) In order to identify mutations that improve the affinity of i53 for 53BP1, the bacterial adenylate cyclase two-hybrid system (BACTH system) was used to screen for interaction between the two proteins. This method makes use of a B. pertussis calmodulin-dependent adenylate cyclase toxin. The catalytic domain of the toxin can be separated into two fragments (T18 and T25) that are able to associate in the presence of calmodulin but have minimal activity in its absence. If bait and prey proteins fused to T18 and T25 interact, then the catalytic activity is restored and cAMP is produced. In E. coli, cAMP binds to catabolite activator protein (CAP) that acts as a transcriptional activator for several genes. By expressing these fusion proteins in an E. coli strain that lacks endogenous adenylate cyclase and naturally lacks calmodulin, cAMP regulated protein expression can be used as a readout of bait-prey interaction. We engineered the screen so that eGFP will be expressed under the control of a cAMP-regulated promoter. The coding sequence for a fragment of 53BP1 (a.a. 1221-1718) containing the i53 interacting regions and i53 were cloned into T18 and T25 adenylate cyclase expression plasmids such that fusion proteins of each would be expressed. If a Ubv interacts with 53BP1, the T18 and T25 fragments will be brought together, adenylate cyclase activity will be restored, cAMP will be produced, and some portion of the bacterial population will be GFP positive.
A plasmid library was made consisting of Ubv-adenylate cyclase fragment fusion protein plasmids that had on average a single codon within the i53 coding region exchanged for a random NNK codon. Plasmids were transformed into DHM1 cells that lack endogenous adenylate cyclase and contain the plasmid for expression of the 53BP1 fragment fused to one of the adenylate cyclase fragments. Expression of eGFP was used as a readout of bait-prey interaction using fluorescence activated cell sorting (FACS) to sort for GFP positive bacteria. Plasmid DNA was isolated from both the sorted GFP positive bacteria (Positive) and from the original pre-sort population (Input) and was sequenced using NGS. Counts were merged for mutations that result in the same amino acid change using Enrich2 [25]. Enrichment was calculated as enrichment=log 2((read count for an amino acid change in the positive population/read count for an amino acid change in the input)/(synonymous change read count in the positive population/synonymous change read count in the input)). […] For each experiment, DHM1 cells were transformed with the Ubv fusion protein plasmid library in two separate replicates using a gene pulser (Bio-Rad). The i53-adenylate cyclase fragment fusion protein (published i53 peptide, SEQ ID NO:2) plasmid was also introduced separately as a control to estimate selection pressure. Cells were then grown and sorted using FACS and GFP positive cells were collected. Two separate experiments were conducted on separate days using different levels of selection pressure resulting in a different percent GFP positive for the i53 population (i.e. for cells that express published i53 peptide (SEQ ID NO:2) fused to one of the adenylate cyclase fragments).
(§3) There was a high degree of correlation between the two experiments and between replicates (FIG. 2). From these screens, about 230 amino acid changes were identified for which the average enrichment was positive for at least one of the experiments (Table 1). […] To validate that the amino acid changes identified from the pooled screen are reproducible on an individual basis, 24 amino acid changes identified from this screen were introduced individually into the i53 fusion protein plasmid and tested by flow cytometry for their effect on the percent positive population relative to i53 (FIG. 3). There was a strong correlation between the enrichment measured from the pooled screen and the percent reporter positive cells when mutations were screened individually.

Assay [7] has as its target T1, fragment of 53BP1 (a.a. 1221-1718). As to the kind of experiment: Individual two-hybrid screen of amino acid changes, percent GFP (reporter) positive cells by flow cytometry. The assay is classed as cell-based.
Text: as §2, §3
Background: Flow cytometry measures light scatter and fluorescence of single cells or particles in a stream.

Another assay has as its system 53BP1 foci. The note with it: introduced into cells; cited from earlier work.
The test system of a further assay is HDR. Particulars: plasmid delivery, adeno-associated virus mediated gene delivery, or delivery of mRNA; cited from earlier work.

Sequence of 53BP1 (amino acids 1484-1603) fused to MBP (Q12888 1484-1603, looked up): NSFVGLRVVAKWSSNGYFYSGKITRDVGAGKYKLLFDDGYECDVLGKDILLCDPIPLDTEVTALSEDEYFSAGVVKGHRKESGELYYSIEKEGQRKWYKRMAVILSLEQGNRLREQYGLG

As to “CM1: i53 with K6R, T7M, T12M, T14E, K33H, A46Q, S65P, L67K, H68M; N-terminal His tag”, the Response in assay [1] (53BP1 0.0102 μM) is recorded as 0.4913; in [1] (53BP1 0.0511 μM), 1.3298; in assay [1] (53BP1 0.1022 μM), 1.6825; in assay [1] (53BP1 0.2045 μM), 2.0092; in [1] (53BP1 1.02 μM), 2.5002; in assay [1] (53BP1 5.11 μM), 2.738. In [1] (53BP1 20.5 μM), the Response is on record as 2.9739. For the same substance, the “rate of HDR” value in assay [2] and in assay [3] was “increase rates of HDR” each time. Moreover, the HDR rate entry in assay [4] was “larger increase in HDR rate”.
CM1tf: tag-free version of CM1: the “ability to enhance HDR” value in assay [5] is given as “equivalent to that of His-tagged CM1”.
As for “CM7: i53 with K6R, K33H, A46Q, S65P; N-terminal His tag”, the Response in assay [1] (53BP1 0.0102 μM) came out at 0.099; in assay [1] (53BP1 0.0511 μM) it was 0.3578; in assay [1] (53BP1 0.1022 μM), 0.5715; in assay [1] (53BP1 0.2045 μM), 0.8611; in [1] (53BP1 1.02 μM), 1.5108; in assay [1] (53BP1 5.11 μM), 2.0067. Also, in [1] (53BP1 20.5 μM), the Response stood at 2.4923.
Regarding “i53 DM: 53BP1 binding deficient i53 variant with P69L, L70V [reference compound]”, the “KD (M)” value in assay [1] (1:1 binding model, global fit over all 53BP1 concentrations) is on record as “Response was too low to get a good fit to the data”.
Consider “i53: published ubiquitin variant inhibitor of 53BP1 (Canny et al.); tested with N-terminal His tag and linker (SEQ ID NO:3) [reference compound]”, for which the i53 percent positive entry in [6] (experiment one) was “approximately 30%”. Moreover, the GFP positive population in assay [6] (high selection pressure experiment) was approximately 3%; in [6] (low selection pressure experiment), approximately 17%. The “Percent GFP Positive Rep 1” value in assay [7] (replicate 1, amino acid change in i53 fusion protein plasmid) was found to be 9%. Also, the “Percent GFP Positive Rep 2” value in assay [7] (replicate 2) is reported as 7.6%. Also, the “Percent GFP Positive Rep 3” value in [7] (replicate 3) worked out at 11.8%. Further, the Response is on record as 0.0176 in assay [1] (53BP1 0.0102 μM); 0.0537 in [1] (53BP1 0.0511 μM); 0.104 in assay [1] (53BP1 0.1022 μM); 0.1877 in assay [1] (53BP1 0.2045 μM); 0.6247 in assay [1] (53BP1 1.02 μM); 1.2658 in assay [1] (53BP1 5.11 μM). Also, in assay [1] (53BP1 20.5 μM), the Response came out at 1.954. The HDR rate entry in assay [4] was “increase in HDR rates”. The “formation of ionizing radiation induced 53BP1 foci” value in the assay with 53BP1 foci is “inhibited the formation ionizing radiation induced 53BP1 foci”. Moreover, in the assay with HDR, the “rates of HDR” value is reported as “improve the rates of HDR”.

(Values after patent publication US20230135471A1, “UBIQUITIN VARIANTS WITH IMPROVED AFFINITY FOR 53BP1” (Integrated DNA Technologies, Inc., priority 2021, published 2023).)
